Measurements as given in paper PMC9316817, “Brain Delivery of IGF1R5, a Single-Domain Antibody Targeting Insulin-like Growth Factor-1 Receptor” (Pharmaceutics, 2022).

Legend:
[1] = biological target: Human IGF1R ectodomain (UniProt P08069); test: SPR; acidic pH: HBS-EP MES buffer pH 5.6, 37 °C; IGF1R ectodomains amine coupled on CM5 chips; VHHs in flow, 0.25-10 nM (IGF1R5), 1-50 nM (IGF1R5-H2); 1:1 binding model
[2] = biological target: mouse IGF1R ectodomain (mouse) (UniProt Q60751); test: as above
Chain of mouse IGF1R ectodomain (mouse) (Q60751 742-936): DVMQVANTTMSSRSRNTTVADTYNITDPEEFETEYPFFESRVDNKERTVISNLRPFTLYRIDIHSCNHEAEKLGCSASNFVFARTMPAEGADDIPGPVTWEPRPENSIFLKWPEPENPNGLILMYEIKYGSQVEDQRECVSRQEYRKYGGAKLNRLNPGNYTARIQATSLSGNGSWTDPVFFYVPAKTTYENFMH

[3] = biological target: Human IGF1R ectodomain (UniProt P08069); test: SPR; Biacore 3000, multi-cycle kinetics; IGF1R ectodomains amine coupled on CM5 chips (about 1500-2000 RU); VHHs in flow at 20 µL/min, 300 s association, 300 s dissociation; 0.25-10 nM (IGF1R5), 1-25 nM (IGF1R5-H2); HBS-EP pH 7.4, 25 °C; 1:1 binding model
[4] = biological target: mouse IGF1R ectodomain (mouse) (UniProt Q60751); test: as above
[5] = biological target: T1, rhesus IGF1R ectodomain (aa31-932) (Macaca mulatta, UniProt I2CWY3); test: SPR; Biacore T200, single-cycle kinetics (rhesus IGF1R); IGF1R ectodomain amine coupled on CM5 chip; VHHs in flow at 40 µL/min, 180 s association, 600 s dissociation; 0.25-10 nM (IGF1R5), 1-25 nM (IGF1R5-H2); HBS-EP pH 7.4, 25 °C; 1:1 binding model; conditions: both partners purified
T1 construct: insulin-like growth factor-1 receptor, rhesus, ectodomain, aa31-932; source: NRC Montreal
T1 sequence (I2CWY3 entry or part of it): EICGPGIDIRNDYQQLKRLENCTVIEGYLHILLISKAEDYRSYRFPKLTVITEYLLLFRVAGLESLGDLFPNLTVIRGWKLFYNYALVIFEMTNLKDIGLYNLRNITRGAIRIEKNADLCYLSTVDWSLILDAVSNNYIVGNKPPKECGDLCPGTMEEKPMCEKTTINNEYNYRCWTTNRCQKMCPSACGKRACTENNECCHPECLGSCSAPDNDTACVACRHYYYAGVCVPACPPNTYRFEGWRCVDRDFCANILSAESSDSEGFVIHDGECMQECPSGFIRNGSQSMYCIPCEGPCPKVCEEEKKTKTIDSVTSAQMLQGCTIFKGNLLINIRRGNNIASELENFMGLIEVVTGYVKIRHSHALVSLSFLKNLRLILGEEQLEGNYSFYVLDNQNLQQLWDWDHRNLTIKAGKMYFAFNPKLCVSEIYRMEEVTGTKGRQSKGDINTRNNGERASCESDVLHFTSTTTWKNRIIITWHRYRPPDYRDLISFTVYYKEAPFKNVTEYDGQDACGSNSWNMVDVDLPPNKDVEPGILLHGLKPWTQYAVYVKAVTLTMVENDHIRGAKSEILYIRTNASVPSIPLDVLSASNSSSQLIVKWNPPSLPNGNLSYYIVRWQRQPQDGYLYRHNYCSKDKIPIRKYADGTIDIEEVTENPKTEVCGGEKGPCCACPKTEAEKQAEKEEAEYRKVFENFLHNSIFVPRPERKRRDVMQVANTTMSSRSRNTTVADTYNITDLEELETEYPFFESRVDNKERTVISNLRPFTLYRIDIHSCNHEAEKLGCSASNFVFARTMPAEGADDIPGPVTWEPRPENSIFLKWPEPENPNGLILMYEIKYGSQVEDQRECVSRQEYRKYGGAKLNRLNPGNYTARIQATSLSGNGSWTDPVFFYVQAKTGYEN

[6] = biological target: T2, rat IGF1R ectodomain (aa31-936) (Rattus norvegicus, UniProt P24062); test: SPR; Biacore 3000, multi-cycle kinetics; IGF1R ectodomains amine coupled on CM5 chips (about 1500-2000 RU); VHHs in flow at 20 µL/min, 300 s association, 300 s dissociation; 0.25-10 nM (IGF1R5), 1-25 nM (IGF1R5-H2); HBS-EP pH 7.4, 25 °C; 1:1 binding model; conditions: both partners purified
T2 construct: insulin-like growth factor-1 receptor, rat, ectodomain, aa31-936; source: NRC Montreal
T2 sequence (P24062 31-936): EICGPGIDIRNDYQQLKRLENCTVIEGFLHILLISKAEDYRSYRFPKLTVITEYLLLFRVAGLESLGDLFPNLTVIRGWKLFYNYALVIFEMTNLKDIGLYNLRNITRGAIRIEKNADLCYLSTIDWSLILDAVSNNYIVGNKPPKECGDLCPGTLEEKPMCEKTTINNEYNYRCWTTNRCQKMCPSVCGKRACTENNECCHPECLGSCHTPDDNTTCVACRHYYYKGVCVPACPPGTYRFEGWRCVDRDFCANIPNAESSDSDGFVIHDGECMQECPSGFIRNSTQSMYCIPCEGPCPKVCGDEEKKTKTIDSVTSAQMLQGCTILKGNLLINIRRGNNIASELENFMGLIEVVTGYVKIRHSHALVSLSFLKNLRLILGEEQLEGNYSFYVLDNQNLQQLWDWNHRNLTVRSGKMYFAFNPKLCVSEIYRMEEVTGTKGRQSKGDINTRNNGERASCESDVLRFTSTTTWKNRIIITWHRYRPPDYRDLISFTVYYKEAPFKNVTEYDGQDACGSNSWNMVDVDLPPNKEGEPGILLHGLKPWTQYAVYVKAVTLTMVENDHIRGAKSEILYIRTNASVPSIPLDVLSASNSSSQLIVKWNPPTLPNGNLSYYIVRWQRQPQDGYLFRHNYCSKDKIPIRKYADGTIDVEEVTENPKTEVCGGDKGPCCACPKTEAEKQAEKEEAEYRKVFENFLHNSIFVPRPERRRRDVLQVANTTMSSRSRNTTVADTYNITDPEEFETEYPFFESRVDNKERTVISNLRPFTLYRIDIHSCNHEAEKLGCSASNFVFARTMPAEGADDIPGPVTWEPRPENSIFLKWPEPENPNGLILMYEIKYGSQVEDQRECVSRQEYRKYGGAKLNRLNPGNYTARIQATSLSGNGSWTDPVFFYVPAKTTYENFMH

Chain of Human IGF1R ectodomain (P08069 741-935): as the sequence (Q60751 742-936) above, with V19A, F31L, P185Q, T189G, M194I counted along it

B1: IGF1R5-H2, humanized variant of the IGF1R5 single-domain antibody (VHH)
VHH: QVQLVESGGGLVQPGGSLRLSCAASGRTIDNYAMAWVRQAPGKGLEWVATIDWGDGGTRYANSVKGRFTISRDNSKNTMYLQMNSLRAEDTAVYYCAMARQSRVNLDVARYDYWGQGTLVTVSS
notes: CDRs of m1 grafted on a human VH3 germline framework, 4 back-mutations in the Vernier zone, no camelizing back-mutations in FR2, CDR2 point mutation A57T; Kabat numbering; Changes are stated against the camelid IGF1R5; also called humanized IGF1R5-H2; source: produced and purified as described for the llama sdAbs (TG1 Escherichia coli, HiTrap Chelating HP; preparative SEC just before SPR)
For B1, the Kd [1] was 160 nM, the koff [1] was 0.034 s⁻¹ and the kon [1] was 210000 M⁻¹ s⁻¹. For the same binder, the Kd [2] was 150 nM, the koff [2] was 0.043 s⁻¹ and the kon [2] was 290000 M⁻¹ s⁻¹. For the same binder, the Kd [3] was 7.6 nM, the koff [3] was 0.0029 s⁻¹ and the kon [3] was 380000 M⁻¹ s⁻¹. For the same binder, the Kd [4] was 9.1 nM, the koff [4] was 0.0021 s⁻¹ and the kon [4] was 230000 M⁻¹ s⁻¹. It also gave a Kd [5] of 17 nM, a koff [5] of 0.0038 s⁻¹ and a kon [5] of 230000 M⁻¹ s⁻¹. For the same binder, the Kd [6] was 11 nM, the koff [6] was 0.0026 s⁻¹ and the kon [6] was 230000 M⁻¹ s⁻¹.

B2: IGF1R5 single-domain antibody (camelid VHH against insulin-like growth factor-1 receptor) (VHH)
VHH: QVKLEESGGGLVQAGGSLRLSCAASGRTIDNYAMAWSRQAPGKDREFVATIDWGDGGARYANSVKGRFTISRDNAKGTMYLQMNNLEPEDTAVYSCAMARQSRVNLDVARYDYWGQGTQVTVSS
notes: Monomeric VHH fraction isolated by SEC was used for SPR; Isolated from a phage display library of a llama immunized with the extracellular domain of human IGF1R (933 amino acids); also called wild-type IGF1R5; IGF1R5 sdAb; source: TG1 Escherichia coli, purified (HiTrap Chelating HP; preparative SEC on Superdex S75 Increase just before SPR)
B2 was tested, and the Kd [1] was 4 nM, the koff [1] was 0.0028 s⁻¹ and the kon [1] was 690000 M⁻¹ s⁻¹. It also gave a Kd [2] of 4.8 nM, a koff [2] of 0.0028 s⁻¹ and a kon [2] of 590000 M⁻¹ s⁻¹. It also gave a Kd [3] of 0.64 nM, a koff [3] of 0.00034 s⁻¹ and a kon [3] of 530000 M⁻¹ s⁻¹. The Kd [4] was 1.1 nM, the koff [4] was 0.0003 s⁻¹ and the kon [4] was 260000 M⁻¹ s⁻¹. For the same binder, the Kd [5] was 0.4 nM, the koff [5] was 0.00059 s⁻¹ and the kon [5] was 1.5e+06 M⁻¹ s⁻¹. The Kd [6] was 1.1 nM, the koff [6] was 0.00038 s⁻¹ and the kon [6] was 340000 M⁻¹ s⁻¹.
